{
  "source": "paper PMC8266564",
  "binders": {"B1": {"name": "60-bp RNA-DNA hybrid (RNA60/DNA60) (DNA:RNA)", "RNA": "GUUGUAACGACGGCCAGUGCCAAGUUCGGAUCGACGCUCGACUCUAGAGGAUCCCGGUAC", "DNA": "GTACCGGGATCCTCTAGAGTCGAGCGTCGATCCGAACTTGGCACTGGCCGTCGTTACAAC"}},
  "biological_target": "T1, GFP-dRNH1 (catalytically inactive RNase H1) (Homo sapiens, UniProt O60930 28-286, D210N)",
  "T1 sequence": "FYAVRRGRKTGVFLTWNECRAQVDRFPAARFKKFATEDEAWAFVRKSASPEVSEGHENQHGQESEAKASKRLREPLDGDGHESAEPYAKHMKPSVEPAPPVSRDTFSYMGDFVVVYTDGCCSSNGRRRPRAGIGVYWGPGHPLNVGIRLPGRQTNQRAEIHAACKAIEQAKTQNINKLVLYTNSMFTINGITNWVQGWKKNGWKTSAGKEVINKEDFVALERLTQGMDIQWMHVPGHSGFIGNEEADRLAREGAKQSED",
  "assay": "EMSA",
  "data": [
    {"binder": "B1", "values": [
      {"measurement": "binding result", "result": "binds"}
    ]}
  ]
}
